This test addresses M. tuberculosis PpiB overexpressed in M. smegmatis (Ms_PpiB Tet+) (Mycobacterium tuberculosis) (UniProt P9WHW1). Put plainly: cell-based or functional assay.

This passage reports biofilm formation (crystal violet assay, absorbance results from patent US20200188477A1, “A MEDICAMENT FOR THE TREATMENT OF DISEASES BY BIOFILM FORMING MICROORGANISMS” (priority 2017, published 2020).

UniProt P9WHW1, sequence (P9WHW1 whole entry): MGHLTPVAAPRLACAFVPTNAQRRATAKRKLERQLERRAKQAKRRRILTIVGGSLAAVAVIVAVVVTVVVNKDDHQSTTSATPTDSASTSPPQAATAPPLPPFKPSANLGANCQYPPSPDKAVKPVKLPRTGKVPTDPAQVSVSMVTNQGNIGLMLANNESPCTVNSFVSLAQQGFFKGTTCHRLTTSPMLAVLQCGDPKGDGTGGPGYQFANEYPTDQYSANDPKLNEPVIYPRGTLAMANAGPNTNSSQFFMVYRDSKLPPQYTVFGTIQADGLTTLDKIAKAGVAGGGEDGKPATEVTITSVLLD

Substance cyclosporine A (peptide) returned a biofilm formation (crystal violet assay, absorbance at 550 nm) greater than 100 µg/mL.
